The text below walks through data of US20250115669A1, “FGFR1/KLB Targeting Agonistic Antigen-Binding Proteins and Conjugates Thereof with GLP-1R Agonistic Peptides” (SANOFI, priority 2020, published 2025).

The target of the assay is T1, human beta-Klotho (Homo sapiens, UniProt Q86Z14).
T1 sequence (Q86Z14 1-1044): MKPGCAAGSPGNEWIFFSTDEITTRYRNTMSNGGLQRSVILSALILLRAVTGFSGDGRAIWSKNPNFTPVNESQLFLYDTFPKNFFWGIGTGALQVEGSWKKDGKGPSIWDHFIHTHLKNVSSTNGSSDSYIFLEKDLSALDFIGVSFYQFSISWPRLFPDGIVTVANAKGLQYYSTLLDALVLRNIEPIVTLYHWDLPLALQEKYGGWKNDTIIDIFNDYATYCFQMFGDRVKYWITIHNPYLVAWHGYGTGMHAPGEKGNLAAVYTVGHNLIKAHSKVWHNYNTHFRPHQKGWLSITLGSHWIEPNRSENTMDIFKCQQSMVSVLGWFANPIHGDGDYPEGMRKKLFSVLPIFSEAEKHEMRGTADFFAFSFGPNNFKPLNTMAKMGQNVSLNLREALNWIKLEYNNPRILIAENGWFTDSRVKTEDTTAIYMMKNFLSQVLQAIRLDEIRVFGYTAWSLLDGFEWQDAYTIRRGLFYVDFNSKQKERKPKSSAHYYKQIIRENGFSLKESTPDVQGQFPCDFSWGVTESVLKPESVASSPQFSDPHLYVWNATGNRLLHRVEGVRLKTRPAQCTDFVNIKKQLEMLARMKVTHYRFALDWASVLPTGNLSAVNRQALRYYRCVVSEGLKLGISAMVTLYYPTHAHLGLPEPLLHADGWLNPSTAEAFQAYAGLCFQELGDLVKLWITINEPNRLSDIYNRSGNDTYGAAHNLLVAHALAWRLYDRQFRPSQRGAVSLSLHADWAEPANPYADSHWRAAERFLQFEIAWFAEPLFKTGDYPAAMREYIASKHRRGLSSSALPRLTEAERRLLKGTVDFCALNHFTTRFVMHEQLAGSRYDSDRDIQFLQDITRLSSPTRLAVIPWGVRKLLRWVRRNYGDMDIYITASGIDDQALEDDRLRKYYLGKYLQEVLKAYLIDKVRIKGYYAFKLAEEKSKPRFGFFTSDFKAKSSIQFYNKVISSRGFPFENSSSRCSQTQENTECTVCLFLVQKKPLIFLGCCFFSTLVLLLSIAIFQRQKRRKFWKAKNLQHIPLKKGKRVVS
The experiment in a line: SPR off-rate screening of antibody mutants (human beta-Klotho captured by anti-His antibody). It is filed as binding. The settings on record: mean, n=3. On the procedure: Screening of antibody mutants for binding to human beta-Klotho was determined in a different SPR assay set up. Human beta-Klotho was affinity captured by an anti-His antibody (from His capture kit, GE Healthcare) that was immobilized to a series S CM5 chip (GE Healthcare) by amine reactive coupling as described above. The antibody samples were used as analytes at 50 nmol/L concentration. Association time was 240 sec and dissociation time was 300 sec. Chip surfaces were regenerated using the regeneration solution supplied with the His capture kit. The off-rates (kd) were determined using single exponential fitting in the Biacore 8K Evaluation Software version 1.1.1.7442 (GE Healthcare).
In the case of “Ab0186: IgG4 PE; 16H7 VL; 16H7 VH (M34V, I83T)”, the “koff human KLB” value stood at 0.000104 s⁻¹.
As for “Ab0295: IgG4 PE; 16H7 VL (N25S, D49Y); 16H7 VH (M34V, I83T, D109E)”, the figure is 0.00157 s⁻¹; as for “Ab0192: IgG4 PE; 16H7 VL (D95E); 16H7 VH (M34V, I83T)”, “invalid fit”; as for “Ab0191: IgG4 PE; 16H7 VL (N93E); 16H7 VH (M34V, I83T)”, 0.000144 s⁻¹.
As for “Ab0216: IgG4 PE; 16H7 VL (D49Y); 16H7 VH (I83T, D109S)”, the figure is 0.00984 s⁻¹; as for “Ab0199: IgG4 PE; 16H7 VL (D95E); 16H7 VH (I83T, D109E)”, “invalid fit”.
With “Ab0207: IgG4 PE; 16H7 VL; 16H7 VH (I83T, D109Y)” the figure was 0.00188 s⁻¹; with “Ab0188: IgG4 PE; 16H7 VL (D49Y); 16H7 VH (M34V, I83T)”, 0.00084 s⁻¹; with “Ab0189: IgG4 PE; 16H7 VL (D50E); 16H7 VH (M34V, I83T)”, 0.000387 s⁻¹.
Take “Ab0309: IgG4 PE; 16H7 VL (D50E, N93E); 16H7 VH (M34V, I83T, D109E)”: the “koff human KLB” value came out at 0.00103 s⁻¹.
As for “Ab0220: IgG4 PE; 16H7 VL (D95E); 16H7 VH (I83T, D109S)”, the entry is “invalid fit”; as for “Ab0200: IgG4 PE; 16H7 VL; 16H7 VH (M34V, I83T, D109E)”, 0.000369 s⁻¹.
With “Ab0204: IgG4 PE; 16H7 VL (D91T); 16H7 VH (M34V, I83T, D109E)” the figure was 0.00133 s⁻¹.
As for “Ab0211: IgG4 PE; 16H7 VL (D91T); 16H7 VH (I83T, D109Y)”, the entry is “invalid fit”; as for “Ab0215: IgG4 PE; 16H7 VL (N25S); 16H7 VH (I83T, D109S)”, 0.00125 s⁻¹.
On to “Ab0218: IgG4 PE; 16H7 VL (D91T); 16H7 VH (I83T, D109S)”, for which the “koff human KLB” value stood at 0.00668 s⁻¹.
For the substance “Ab0205: IgG4 PE; 16H7 VL (N93E); 16H7 VH (M34V, I83T, D109E)”, the “koff human KLB” value was found to be 0.000334 s⁻¹.
As for “Ab0219: IgG4 PE; 16H7 VL (N93E); 16H7 VH (I83T, D109S)”, the figure is 0.000915 s⁻¹; as for “Ab0210: IgG4 PE; 16H7 VL (D50E); 16H7 VH (I83T, D109Y)”, “invalid fit”.
Turning to “Ab0306: IgG4 PE; 16H7 VL (N25S, N93E); 16H7 VH (M34V, I83T, D109E)”, the “koff human KLB” value came to 0.000288 s⁻¹.
On to “Ab0202: IgG4 PE; 16H7 VL (D49Y); 16H7 VH (M34V, I83T, D109E)”, for which the “koff human KLB” value was 0.00161 s⁻¹.
With “Ab0234: IgG4 PE; 16H7 VL (N93S); 16H7 VH” the figure was 0.00011 s⁻¹; with “Ab0198: IgG4 PE; 16H7 VL (N93E); 16H7 VH (I83T, D109E)”, 0.000346 s⁻¹; with “Ab0196: IgG4 PE; 16H7 VL (D50E); 16H7 VH (I83T, D109E)”, 0.00194 s⁻¹.
As for “Ab0302: IgG4 PE; 16H7 VL (D50E, D91T); 16H7 VH (M34V, I83T, D109E)”, the entry is “invalid fit”; as for “Ab0201: IgG4 PE; 16H7 VL (N25S); 16H7 VH (M34V, I83T, D109E)”, 0.000336 s⁻¹; as for “Ab0300: IgG4 PE; 16H7 VL (D49Y, D91T); 16H7 VH (M34V, I83T, D109E)”, “invalid fit”.
As to “Ab0217: IgG4 PE; 16H7 VL (D50E); 16H7 VH (I83T, D109S)”, the “koff human KLB” value was 0.002 s⁻¹.
For the substance “Ab0187: IgG4 PE; 16H7 VL (N25S); 16H7 VH (M34V, I83T)”, the “koff human KLB” value was found to be 0.000156 s⁻¹.
As for “Ab0194: IgG4 PE; 16H7 VL (N25S); 16H7 VH (I83T, D109E)”, the figure is 0.000402 s⁻¹; as for “Ab0197: IgG4 PE; 16H7 VL (D91T); 16H7 VH (I83T, D109E)”, 0.00167 s⁻¹; as for “Ab0307: IgG4 PE; 16H7 VL (D49Y, N93E); 16H7 VH (M34V, I83T, D109E)”, 0.00118 s⁻¹.
“Ab0297: IgG4 PE; 16H7 VL (D49Y, D50E); 16H7 VH (M34V, I83T, D109E)”: the “koff human KLB” value turned out to be 0.00156 s⁻¹.
With “Ab0193: IgG4 PE; 16H7 VL; 16H7 VH (I83T, D109E)” the figure was 0.000337 s⁻¹; with “Ab0212: IgG4 PE; 16H7 VL (N93E); 16H7 VH (I83T, D109Y)”, 0.00185 s⁻¹.
As for “Ab0209: IgG4 PE; 16H7 VL (D49Y); 16H7 VH (I83T, D109Y)”, the entry is “invalid fit”; as for “Ab0214: IgG4 PE; 16H7 VL; 16H7 VH (I83T, D109S)”, 0.00121 s⁻¹.
Turning to “Ab0208: IgG4 PE; 16H7 VL (N25S); 16H7 VH (I83T, D109Y)”, the “koff human KLB” value stood at 0.0021 s⁻¹.
As to “Ab0195: IgG4 PE; 16H7 VL (D49Y); 16H7 VH (I83T, D109E)”, the “koff human KLB” value is 0.00267 s⁻¹.
Consider “Ab0203: IgG4 PE; 16H7 VL (D50E); 16H7 VH (M34V, I83T, D109E)”, for which the “koff human KLB” value is 0.00151 s⁻¹.
With “Ab0190: IgG4 PE; 16H7 VL (D91T); 16H7 VH (M34V, I83T)” the figure was 0.000195 s⁻¹; with “Ab0386: IgG4 PE; 16H7 VL (D95S, W90F); 16H7 VH (M34V, F54W, I83T, D109E)”, “no binding”.
On to “Ab0296: IgG4 PE; 16H7 VL (N25S, D50E); 16H7 VH (M34V, I83T, D109E)”, for which the “koff human KLB” value was determined as 0.00137 s⁻¹.
As for “Ab0213: IgG4 PE; 16H7 VL (D95E); 16H7 VH (I83T, D109Y)”, the entry is “invalid fit”.
